In the supplement of paper PMC9112550, “Optimization of the antimicrobial peptide Bac7 by deep mutational scanning” (BMC Biology, 2022):

Each sequence was assayed on Escherichia coli TOP10 (assay: shrunken log2 fold change of peptide-encoding DNA abundance (4.5 h post-induction vs induction); higher = less antimicrobial activity (less host growth inhibition)). Conditions: time post-induction: 4.5 h; library: site-saturation at positions 5, 18, 19, 20.
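Also: peptides expressed intracellularly from a pBAD plasmid library in pooled LB shake-flask culture, induced with 0.3% L-arabinose, DNA abundance read by NGS, three biological replicates, DESeq2 with apeglm shrinkage.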

Row | Sequence | shrunken log2 fold change
1 | RRIRHRPPRLPRPRPRPCCEPRP | -0.366
2 | RRIRHRPPRLPRPRPRPCCQPRP | -0.243
3 | RRIRHRPPRLPRPRPRPCFHPRP | -0.48
4 | RRIRHRPPRLPRPRPRPCGFPRP | 0.134
5 | RRIRHRPPRLPRPRPRPCGGPRP | -0.0282
6 | RRIRHRPPRLPRPRPRPCGIPRP | -0.0112
7 | RRIRHRPPRLPRPRPRPCIYPRP | -0.196
8 | RRIRHRPPRLPRPRPRPCKLPRP | -0.714
9 | RRIRHRPPRLPRPRPRPCMDPRP | -0.0981
10 | RRIRHRPPRLPRPRPRPCNKPRP | -0.395
11 | RRIRHRPPRLPRPRPRPCPDPRP | 0.0299
12 | RRIRHRPPRLPRPRPRPCRAPRP | 0.0188
13 | RRIRHRPPRLPRPRPRPCSHPRP | -0.0787
14 | RRIRHRPPRLPRPRPRPCVAPRP | 0.0478
15 | RRIRHRPPRLPRPRPRPCVMPRP | -0.239
16 | RRIRHRPPRLPRPRPRPCYRPRP | -0.121
17 | RRIRHRPPRLPRPRPRPDCRPRP | -0.0597
18 | RRIRHRPPRLPRPRPRPDDNPRP | -0.0371
19 | RRIRHRPPRLPRPRPRPDFGPRP | -0.156
20 | RRIRHRPPRLPRPRPRPDHEPRP | -0.018
21 | RRIRHRPPRLPRPRPRPDIAPRP | 0.00497
22 | RRIRHRPPRLPRPRPRPDIYPRP | 0.027
23 | RRIRHRPPRLPRPRPRPDLEPRP | -0.00264
24 | RRIRHRPPRLPRPRPRPDMPPRP | 0.144
25 | RRIRHRPPRLPRPRPRPDNCPRP | -0.0245

Row | Sequence | shrunken log2 fold change
26 | RRIRHRPPRLPRPRPRPDPDPRP | -0.0982
27 | RRIRHRPPRLPRPRPRPDQAPRP | 0.106
28 | RRIRHRPPRLPRPRPRPDQDPRP | -0.0366
29 | RRIRHRPPRLPRPRPRPDQSPRP | -0.016
30 | RRIRHRPPRLPRPRPRPDRSPRP | -0.0222
31 | RRIRHRPPRLPRPRPRPDSTPRP | 0.12
32 | RRIRHRPPRLPRPRPRPDTKPRP | 0.162
33 | RRIRHRPPRLPRPRPRPDWAPRP | -0.0995
34 | RRIRHRPPRLPRPRPRPDWDPRP | -0.0204
35 | RRIRHRPPRLPRPRPRPDWLPRP | 0.0441
36 | RRIRHRPPRLPRPRPRPDWPPRP | 0.114
37 | RRIRHRPPRLPRPRPRPDWVPRP | -0.0196
38 | RRIRHRPPRLPRPRPRPDWYPRP | -0.061
39 | RRIRHRPPRLPRPRPRPDYLPRP | -0.998
40 | RRIRHRPPRLPRPRPRPEAMPRP | -0.00857
41 | RRIRHRPPRLPRPRPRPECEPRP | 0.16
42 | RRIRHRPPRLPRPRPRPECGPRP | 0.322
43 | RRIRHRPPRLPRPRPRPEDFPRP | 0.0333
44 | RRIRHRPPRLPRPRPRPEDWPRP | 0.83
45 | RRIRHRPPRLPRPRPRPEGAPRP | 0.686
46 | RRIRHRPPRLPRPRPRPEHMPRP | -0.177
47 | RRIRHRPPRLPRPRPRPEIIPRP | -0.496
48 | RRIRHRPPRLPRPRPRPELFPRP | 0.458
49 | RRIRHRPPRLPRPRPRPEPAPRP | 1.48
50 | RRIRHRPPRLPRPRPRPEPEPRP | 0.241

Row | Sequence | shrunken log2 fold change
51 | RRIRHRPPRLPRPRPRPEPVPRP | 0.0556
52 | RRIRHRPPRLPRPRPRPEQRPRP | 0.229
53 | RRIRHRPPRLPRPRPRPERWPRP | 0.357
54 | RRIRHRPPRLPRPRPRPESHPRP | -0.0331
55 | RRIRHRPPRLPRPRPRPESNPRP | -0.131
56 | RRIRHRPPRLPRPRPRPESQPRP | -0.173
57 | RRIRHRPPRLPRPRPRPEVFPRP | -0.0194
58 | RRIRHRPPRLPRPRPRPEVPPRP | -0.00339
59 | RRIRHRPPRLPRPRPRPEYCPRP | -0.201
60 | RRIRHRPPRLPRPRPRPEYHPRP | -0.317
61 | RRIRHRPPRLPRPRPRPEYSPRP | -0.0276
62 | RRIRHRPPRLPRPRPRPFCRPRP | -0.108
63 | RRIRHRPPRLPRPRPRPFCWPRP | 0.252
64 | RRIRHRPPRLPRPRPRPFDIPRP | -0.212
65 | RRIRHRPPRLPRPRPRPFDPPRP | -0.101
66 | RRIRHRPPRLPRPRPRPFIHPRP | -0.1
67 | RRIRHRPPRLPRPRPRPFINPRP | -0.205
68 | RRIRHRPPRLPRPRPRPFKKPRP | -0.00783
69 | RRIRHRPPRLPRPRPRPFKQPRP | -0.0287
70 | RRIRHRPPRLPRPRPRPFLAPRP | -0.336
71 | RRIRHRPPRLPRPRPRPFLFPRP | -0.408
72 | RRIRHRPPRLPRPRPRPFLKPRP | -0.0136
73 | RRIRHRPPRLPRPRPRPFLPPRP | -0.671
74 | RRIRHRPPRLPRPRPRPFMAPRP | -0.548
75 | RRIRHRPPRLPRPRPRPFPIPRP | 0.0165
